Patent US12545707 (UNIVERSITY OF DELAWARE, dated 2026)
*: point of attachment. TAMRA = 5(6)-carboxytetramethylrhodamine amide on Lys NZ; Butanoyl(4-maleimido) = O=C1C=CC(=O)N1CCCC(=O)*; NBD = O=[N+]([O-])c1ccc(*)c2nonc12

How the values were obtained:
[1] = target: the molecule itself; assay: self-association of the dye-labelled peptide into a tetrameric bundle; STORM imaging of the rods
Experimental: With these rigid-rod molecules, the local amino acid sequence along the rods is determined via computational design. With this specified sequence, robust bundle physical assembly, and subsequent covalent polymer formation, one can display desired functionality locally within the polymer chain. High-resolution fluorescence microscopy provides the tool for observation of rigid-rod polymers synthesized with fluorophores attached to specific lysine side chains. Rods with targeted lengths of ~50 nm were first assembled using the same parent peptides as described in FIG. 33 with the short rod termini consisting of bundles displaying thiol functionality (FIG. 33A, more description in Methods). The maleimide-terminated peptides used in the short rod syntheses were functionalized with a desired fluorescent dye (rhodamine; nitrobenzofurazan (NBD); see FIG. 35A). […] After short rod synthesis with desired dye incorporation, separate populations of short red rods and short green rods were mixed together along with individual bundles with maleimide termini and no dye (FIG. 33A and FIG. 35A) in order to link the short, dyed rods together into longer rigid-rod chains. […] The sub-optical wavelength resolution of the STORM technique (stochastic optical reconstruction microscopy) allows clear observation of the ~50 nm long, individual rod segments within final, longer rods. […]

[2] = target: the molecule itself; assay: self-association of the peptide into a homotetrameric coiled coil bundle; TEM, cryoTEM and SANS of the linked bundle chains
Experimental: Transmission Electron Microscopy (TEM): Carbon-coated 200 mesh copper grids (CF200-Cu, Electron Microscopy Sciences, Inc.) were freshly treated by glow discharge using a plasma cleaner (PDC-32G, Harrica Plasma, Inc.) at low level for 20 seconds. Then, 4 µL sample solution was dropped on the grid. After 1 min, the remaining liquid was blotted from the edge of the grid using filter paper. The grid was allowed to air-dry for 10 min before TEM observation on FEI TALOS™ F200C microscope. For negative staining, 6 µL aqueous solution of phosphotungstic acid (2 w/v %, pH 6) was applied to the dried grid and incubated for 15-30 seconds. Then the grid was blotted with filter paper. The stained grid was allowed to sit for 10 min before TEM observation.

Protein	binding result [1]	binding result [2]
{Butanoyl(4-maleimido)}-DEKIKNMADQIKHMAWMIDRMAEK(NBD)IDREA-NH2 (not fully specified (residue 1), also called green dye peptide) [Peptide 3 (SEQ ID NO: 3, maleimide N-terminus, nitrobenzofurazan dye on a lysine side chain)]	binds	–
{Butanoyl(4-maleimido)}-DEKIKNMADQIKHMAWMIDRMAEK(TAMRA)IDREA-NH2 (not fully specified (residue 1), also called red dye peptide) [Peptide 4 (SEQ ID NO: 3, maleimide N-terminus, tetramethylrhodamine dye on a lysine side chain)]	binds	–
H-CDEEIRRMAEEIRQMAERIQQMAEQIQQEA-NH2 (not fully specified, Four copies associate non-covalently into an antiparallel homotetrameric coiled coil bundle; also called 4459a-C; thiol-containing peptide) [Peptide 2 (bundle-forming peptide with N-terminal cysteine, SEQ ID NO: 1)]	–	binds
{Butanoyl(4-maleimido)}-DEKIKNMADQIKHMAWMIDRMAEKIDREA-NH2 (not fully specified (residue 1), Four copies associate non-covalently into an antiparallel homotetrameric coiled coil bundle; also called P622-A6-1; maleimide-containing peptide) [Peptide 1 (maleimide-functionalized bundle-forming peptide, SEQ ID NO: 3)]	–	binds
